B1: C1554 IgG (antibody, V domains shown)
VH: QVQLVQSGAEVKKPGASVKVSCKVSGYTLPEISIHWVREAPGKGLEWMGGFDPEDGETIYSQRFQGRVTMTEDTSTDTAYMELSSLRSEDTAVYYCAASSPFSGGWFHPWGQGTLVTVSS
VL: QSALTQPASVSGSPGQSITISCTETSSDVGNYNLVSWYQQHPGKAPKLVIYEGTKRPSGVSNRFSASKSGNTASLTISELQAEDEANYYCCSYARSGVFGGGTKLTVL
B2: C1717 IgG (antibody, V domains shown)
VH: QVQLVQSGAEVKKPGSSVKVSCKTSGGTFNSFAINWVRQAPGQGPEWMGRVIPVLEIANYAQKFQGRITITADKSTSTAYMELSSLTSEDTAIYYCARHHIAVAQPYFDYWGQGTLVTVSS
VL: not shown
B3: C1791 IgG (antibody, V domains shown)
VH: EVQLLESGGGLVQPGGSRRLSCAASGFTFSIAAMSWVRQAPGKGLEWVSVISTSGGTSYYADSVRGRFTISRDNSQNTLYLQMNSLSAEDTAIYYCAKDLGSYFPDYWGQGTLVTVSS
VL: DIQMTQSPSSLSASVGDRVTITCRASQGIRNDIGWYQQKPGKAPKRLIHAASSLQSGVPSRFSGSGSGTEFTLTISSLQPEDFATYYCLQYNSYPRVTFGPGTKVDIK
B4: C1557 IgG (antibody, V domains shown)
VH: QVQLVQSGAEVRKPGASVKVSCKVSGYTLTELSMHWVRQSPGKGLEWMGSFDPDDGETFYAQKFQGRITMSEDTSTDTAYMELSSLRSEDTAVYFCATDSNMIVVRGNYYYSGLDVWGQGTTVTVSS
VL: EIVMTQSPATLSVSPGERATLSCRASQSVAGNLAWYQQKPGLAPRLLIQGPSTRATGIPARFSGSGSGTEFTLTISSLQSEDFAVYYCHQYNNWPWTFGQGTKVEIK
B5: C1621 IgG (antibody, V domains shown)
VH: EVQLVESGGGLVKPGGSLRLSCAASGFSFNNSNMNWVRQAPGKGLEWVSSISSSSNYIYYVDSVKGRFTISRDNAKNSLYLQMSSLRVEDTAVYYCASAQSSARWGGYYQYAMDVWGQGTTVTVSS
VL: EIVMTQSPATLSVSPGERATLSCRASQSVSSSLAWYQQKPGQAPRLLIYDASTRATGIPARFSGRGSGTEFTLTISSLQSEDFAVYYCQQYYNWPPWTFGQGTKVEI
B6: C1520 IgG (antibody, V domains shown)
VH: EVQLVESGGGLVQPGGSLRLACVASGFTFSIYEMNWVRQAPGKGLEWVSYITTSGHARYNADSVKGRFTISRDNSKNSFYLQMNSLRAEDTAIYYCARPQYHYYDTSTYHSYGFDIWGQGTMVTVSS
VL: QLVLTQSPSASASLGASVNLTCTLSSGHNSYAIAWHQQQPEKGPRYLMSLNSDGSHTKGDGIPDRFSGSSSGAERFLTISSLQSEDEADYYCQTWDTGIRVFGGGTRLTVL
B7: C1704 IgG (antibody, V domains shown)
VH: QVQLVQSGAEVKKPGASVKVSCKVSGYTLTELSIHWVRQAPGKGLEWMGSFDPEDGETICAQKFQGRVTMTEDTSTDTAYMELSSLRSEDTAVYYCATEWRGCSDTSCQGTNWFDPWGQGTLVTVSS
VL: QPVLTQSPSASASLGASVKLTCTLSSGHSTYAIAWHQQQPEKGPRYLMKLNSDGSHNKGDGIPDRFSGSSSGAERYLTISSLQSEDEADYYCQTWGTGVRVFGGGTKLTVL

These binders were tested against SARS-CoV-2 Wuhan-Hu-1 NTD (SARS-CoV-2 Wuhan-Hu-1, UniProt P0DTC2) (assay: BLI).
B1: binds. B2: binds. B3: binds. B4: binds. B5: binds. B6: binds. B7: binds.

Source: article PMC8986478 (Immunity, 2022)
